This passage reports Kd and yeast surface expression results from the FLAb antibody collection (doi:10.7554/elife.23156).

B1: scFv; the commonest letter at each place (parent)
chain 1: EVKLDETGGGLVQPGRPMKLSCVASGFTFSDYWMNWVRQSPEKGLEWVAQIRNKPYNYETYYSDSVKGRFTISRDDSKSSVYLQMNNLRVEDMGIYYCTGSYYGMDYWGQGTSVTVS
chain 2: DVVMTQTPLSLPVSLGDQASISCRSSQSLVHSNGNTYLRWYLQKPGQSPKVLIYKVSNRFSGVPDRFSGSGSGTDFTLKISRVEAEDLGVYFCSQSTHVPWTFGGGTKLEIK

The series “fluorescein” covers variants of B1. Put plainly: Kd (Tite-Seq). The settings on record: with fluorescein; format: scFv 4-4-20, heavy + light.
In series [1] the parent is B1. Put plainly: yeast surface expression (ratio to wild type); higher = more expressed. To be noted: format: scFv 4-4-20, heavy + light.

A word on the Kd: it is the constant that tells how readily two partners part at equilibrium. For chain 1 EVKLDETGGGLVQPGRPMKLSCVASGFTFSDYWMNWVRQSPEKGLEWVAQIRNKPYNYETYYSDSVKGRFTISRDDSKSSVYLQMNNLRVEDMGIYYCTFSYYGKDYWGQGTSVTVS chain 2 DVVMTQTPLSLPVSLGDQASISCRSSQSLVHSNGNTYLRWYLQKPGQSPKVLIYKVSNRFSGVPDRFSGSGSGTDFTLKISRVEAEDLGVYFCSQSTHVPWTFGGGTKLEIK [chain 1 G100F M105K], in the series with fluorescein, the Kd was at least 10 µM. Further, the yeast surface expression in series [1] was found to be 1.1.

For the variant chain 1 EVKLDETGGGLVQPGRPMKLSCVASGFTFSDYWMNWVRQSPEKGLEWVAQIRNKPYNYETYYSDSVKGRFTISRDDSKSSVYLQMNNLRVEDMGIYYCTGSYDGMDYWHQGTSVTVS chain 2 DVVMTQTPLSLPVSLGDQASISCRSSQSLVHSNGNTYLRWYLQKPGQSPKVLIYKVSNRFSGVPDRFSGSGSGTDFTLKISRVEAEDLGVYFCSQSTHVPWTFGGGTKLEIK [chain 1 Y103D G109H], in the series with fluorescein, the Kd was at least 10 µM. In series [1], the yeast surface expression is 0.441.

Regarding chain 1 EVKLDETGGGLVQPGRPMKLSCVASGFTFSDSSMNWVRQSPEKGLEWVAQIRNKPYNYETYYSDSVKGRFTISRDDSKSSVYLQMNNLRVEDMGIYYCTGSYYGMDYWGQGTSVTVS chain 2 DVVMTQTPLSLPVSLGDQASISCRSSQSLVHSNGNTYLRWYLQKPGQSPKVLIYKVSNRFSGVPDRFSGSGSGTDFTLKISRVEAEDLGVYFCSQSTHVPWTFGGGTKLEIK [chain 1 Y32S W33S], the Kd in the series with fluorescein is at least 10 µM. In addition, in series [1], the yeast surface expression amounted to 0.838.

Consider chain 1 EVKLDETGGGLVQPGRPMKLSCVASGFTFSDYWMNWVRQSPEKGLEWVAQIRNKPYNYETYYSDSVKGRFTISRDDSKSSVYLQMNNLRVEDMGIYYCTLSWYGMDYWGQGTSVTVS chain 2 DVVMTQTPLSLPVSLGDQASISCRSSQSLVHSNGNTYLRWYLQKPGQSPKVLIYKVSNRFSGVPDRFSGSGSGTDFTLKISRVEAEDLGVYFCSQSTHVPWTFGGGTKLEIK [chain 1 G100L Y102W], for which, in the series with fluorescein, the Kd was at least 10 µM. Besides, the yeast surface expression in series [1] turned out to be 0.497.

Turning to chain 1 EVKLDETGGGLVQPGRPMKLSCVASGFHFDDYWMNWVRQSPEKGLEWVAQIRNKPYNYETYYSDSVKGRFTISRDDSKSSVYLQMNNLRVEDMGIYYCTGSYYGMDYWGQGTSVTVS chain 2 DVVMTQTPLSLPVSLGDQASISCRSSQSLVHSNGNTYLRWYLQKPGQSPKVLIYKVSNRFSGVPDRFSGSGSGTDFTLKISRVEAEDLGVYFCSQSTHVPWTFGGGTKLEIK [chain 1 T28H S30D], the Kd with fluorescein was determined as 0.00184 µM. The yeast surface expression in series [1] is 0.948.

Consider chain 1 EVKLDETGGGLVQPGRPMKLSCVASGFTFSDYWMNWVRQSPEKGLEWVAQIRNKPYNYETYYSDSVKGRFTISRDDSKSSVYLQMNNLRVEDMGIYYCTGSYAGMDYWGQGTSVTVS chain 2 DVVMTQTPLSLPVSLGDQASISCRSSQSLVHSNGNTYLRWYLQKPGQSPKVLIYKVSNRFSGVPDRFSGSGSGTDFTLKISRVEAEDLGVYFCSQSTHVPWTFGGGTKLEIK [chain 1 Y103A], for which the Kd with fluorescein turned out to be 0.015 µM. In addition, in series [1], the yeast surface expression is 0.932.

Turning to chain 1 EVKLDETGGGLVQPGRPMKLSCVASGFTFSDYWMNWVRQSPEKGLEWVAQIRNKPYNYETYYSDSVKGRFTISRDDSKSSVYLQMNNLRVEDMGIYYCTGSYQGMDYWGQGTSVTVS chain 2 DVVMTQTPLSLPVSLGDQASISCRSSQSLVHSNGNTYLRWYLQKPGQSPKVLIYKVSNRFSGVPDRFSGSGSGTDFTLKISRVEAEDLGVYFCSQSTHVPWTFGGGTKLEIK [chain 1 Y103Q], the Kd with fluorescein came to 0.0199 µM. Besides, the yeast surface expression in series [1] amounted to 1.33.

With chain 1 EVKLDETGGGLVQPGRPMKLSCVASGFAFSDTWMNWVRQSPEKGLEWVAQIRNKPYNYETYYSDSVKGRFTISRDDSKSSVYLQMNNLRVEDMGIYYCTGSYYGMDYWGQGTSVTVS chain 2 DVVMTQTPLSLPVSLGDQASISCRSSQSLVHSNGNTYLRWYLQKPGQSPKVLIYKVSNRFSGVPDRFSGSGSGTDFTLKISRVEAEDLGVYFCSQSTHVPWTFGGGTKLEIK [chain 1 T28A Y32T], the Kd in the series with fluorescein is at least 10 µM. For the same variant, the yeast surface expression in series [1] worked out at 1.2.

With chain 1 EVKLDETGGGLVQPGRPMKLSCVASGFTFSDYWMNWVRQSPEKGLEWVAQIRNKPYNYETYYSDSVKGRFTISRDDSKSSVYLQMNNLRVEDMGIYYCTGSYYGMDSWGQGTSVTVS chain 2 DVVMTQTPLSLPVSLGDQASISCRSSQSLVHSNGNTYLRWYLQKPGQSPKVLIYKVSNRFSGVPDRFSGSGSGTDFTLKISRVEAEDLGVYFCSQSTHVPWTFGGGTKLEIK [chain 1 Y107S], the Kd in the series with fluorescein was found to be 0.00239 µM. The yeast surface expression in series [1] was 0.77.

As for chain 1 EVKLDETGGGLVQPGRPMKLSCVASGFTFSDYWMNWVRQSPEKGLEWVAQIRNKPYNYETYYSDSVKGRFTISRDDSKSSVYLQMNNLRVEDMGIYYCTGSYYGMDDWRQGTSVTVS chain 2 DVVMTQTPLSLPVSLGDQASISCRSSQSLVHSNGNTYLRWYLQKPGQSPKVLIYKVSNRFSGVPDRFSGSGSGTDFTLKISRVEAEDLGVYFCSQSTHVPWTFGGGTKLEIK [chain 1 Y107D G109R], in the series with fluorescein, the Kd was at least 10 µM. Besides, in series [1], the yeast surface expression stood at 0.366.

Take chain 1 EVKLDETGGGLVQPGRPMKLSCVASGFTFWDCWMNWVRQSPEKGLEWVAQIRNKPYNYETYYSDSVKGRFTISRDDSKSSVYLQMNNLRVEDMGIYYCTGSYYGMDYWGQGTSVTVS chain 2 DVVMTQTPLSLPVSLGDQASISCRSSQSLVHSNGNTYLRWYLQKPGQSPKVLIYKVSNRFSGVPDRFSGSGSGTDFTLKISRVEAEDLGVYFCSQSTHVPWTFGGGTKLEIK [chain 1 S30W Y32C]: the Kd with fluorescein amounted to 5.66 µM. Moreover, in series [1], the yeast surface expression amounted to 0.838.

chain 1 EVKLDETGGGLVQPGRPMKLSCVASGFTFYDYWHNWVRQSPEKGLEWVAQIRNKPYNYETYYSDSVKGRFTISRDDSKSSVYLQMNNLRVEDMGIYYCTGSYYGMDYWGQGTSVTVS chain 2 DVVMTQTPLSLPVSLGDQASISCRSSQSLVHSNGNTYLRWYLQKPGQSPKVLIYKVSNRFSGVPDRFSGSGSGTDFTLKISRVEAEDLGVYFCSQSTHVPWTFGGGTKLEIK [chain 1 S30Y M34H]: the Kd with fluorescein was at least 10 µM. Besides, in series [1], the yeast surface expression is 0.38.
